Measured values from patent US20120108492A1, “LIGAND-SPECIFIC NON-ANTIBODY COMPOUNDS THAT INHIBIT CR2 ACTIVATION AND METHODS OF USE THEREOF” (The Regents of the University of Colorado, priority 2008, published 2012).
Substitutions are numbered along the chain they refer to. Names may count otherwise.

B1: R28A: single-site mutant of recombinant MBP-CR2 SCR1-2 (protein)
chain: ISCGSPPPILNGRISYYSTPIAVGTVIAYSCSGTFRLIGEKSLLCITKDKVDGTWDKPAPKCEYFNKYSSCPEPIVPGGYKIRGSTPYRHGDSVTFACKTNFSMNGNKSVWCQANNMWGPTRLPTCVSVFPLE
modifications: left off: large carriers; small tags and cut ends
B2: L10A: single-site mutant of recombinant MBP-CR2 SCR1-2 (protein)
chain: B1 chain with L10A, A28R
modifications: left off: large carriers; small tags and cut ends
B3: Y64A: single-site mutant of recombinant MBP-CR2 SCR1-2 (protein)
chain: B1 chain with A28R, Y64A
modifications: left off: large carriers; small tags and cut ends
B4: K50A: single-site mutant of recombinant MBP-CR2 SCR1-2 (protein)
chain: B1 chain with A28R, K50A
modifications: left off: large carriers; small tags and cut ends
B5: R13A: single-site mutant of recombinant MBP-CR2 SCR1-2 (protein)
chain: B1 chain with R13A, A28R
modifications: left off: large carriers; small tags and cut ends
B6: S15P: single-site mutant of recombinant MBP-CR2 SCR1-2 (protein)
chain: B1 chain with S15P, A28R
modifications: left off: large carriers; small tags and cut ends
B7: T86A: single-site mutant of recombinant MBP-CR2 SCR1-2 (protein)
chain: B1 chain with A28R, T86A
modifications: left off: large carriers; small tags and cut ends
B8: M117A: single-site mutant of recombinant MBP-CR2 SCR1-2 (protein)
chain: B1 chain with A28R, M117A
modifications: left off: large carriers; small tags and cut ends
B9: K41A: single-site mutant of recombinant MBP-CR2 SCR1-2 (protein)
chain: B1 chain with A28R, K41A
modifications: left off: large carriers; small tags and cut ends
B10: K57A: single-site mutant of recombinant MBP-CR2 SCR1-2 (protein)
chain: B1 chain with A28R, K57A
modifications: left off: large carriers; small tags and cut ends
B11: R36A: single-site mutant of recombinant MBP-CR2 SCR1-2 (protein)
chain: B1 chain with A28R, R36A
modifications: left off: large carriers; small tags and cut ends
B12: N11A: single-site mutant of recombinant MBP-CR2 SCR1-2 (protein)
chain: B1 chain with N11A, A28R
modifications: left off: large carriers; small tags and cut ends
B13: S32A: single-site mutant of recombinant MBP-CR2 SCR1-2 (protein)
chain: B1 chain with A28R, S32A
modifications: left off: large carriers; small tags and cut ends
B14: Y68A: single-site mutant of recombinant MBP-CR2 SCR1-2 (protein)
chain: B1 chain with A28R, Y68A
modifications: left off: large carriers; small tags and cut ends
B15: T34A: single-site mutant of recombinant MBP-CR2 SCR1-2 (protein)
chain: B1 chain with A28R, T34A
modifications: left off: large carriers; small tags and cut ends

These molecules were tested on anti-CR2 SCR1-2 monoclonal antibody 171 (assay: MBP-CR2 SCR1-2-171 mAb ELISA). Settings: mutant MBP-CR2 SCR1-2 relative to wild-type.
Format: binding
Method: See Asokan et al. (2006) J Immunol 177:383-94; Guthridge et al. (2001) J Immunol 167:5758-66; Young et al. (2007) J Biol Chem 282:36614-36625. […] Hannan et al. (2005) J Mol Biol 346:845-58; and Young et al. (2007) J Biol Chem 282:36614-36625.
(§1) After coating, the plates were blocked using 0.1% BSA in a PBS solution, pH 7.4 for one hour at room temperature. The plates were then washed, and incubated with either wild-type or mutant MBP-CR2 SCR1-2, at concentrations ranging from 0.03125-2.0 μg/ml in PBS for one hour at room temperature. After further washing, wild-type or mutant MBP-CR2 binding was detected using commercially available horseradish peroxidase-conjugated anti-MBP mAb (New England Biolabs) according to the manufacturer's instructions.

| Molecule | Weighting (171 mAb) |
| --- | --- |
| B1 | ++++ (++++>90%) |
| B2 | ++++ (++++>90%) |
| B3 | − (−19.9-0%) |
| B4 | ++++ (++++>90%) |
| B5 | − (−19.9-0%) |
| B6 | ++++ (++++>90%) |
| B7 | +++ (+++89.9-70%) |
| B8 | ++++ (++++>90%) |
| B9 | ++++ (++++>90%) |
| B10 | ++++ (++++>90%) |
| B11 | − (−19.9-0%) |
| B12 | + (+39.9-20%) |
| B13 | +++ (+++89.9-70%) |
| B14 | ++++ (++++>90%) |
| B15 | − (−19.9-0%) |

Same assay, conditions: mutant MBP-CR2 SCR1-2 relative to wild-type; plate-bound 171 mAb

| Molecule | % 171 mAb Binding [%] |
| --- | --- |
| B1 | 103.5 |
| B2 | 94.7 |
| B3 | 5.8 |
| B4 | 94.4 |
| B5 | 15.6 |
| B6 | 108.5 |
| B7 | 89.6 |
| B8 | 97.2 |
| B9 | 97.3 |
| B10 | 91.9 |
| B11 | 19.8 |
| B12 | 24.1 |
| B13 | 77.5 |
| B14 | 92.1 |
| B15 | 12.4 |

The molecules below were run against EBV gp350 (Epstein-Barr virus, UniProt P03200) (assay: MBP-CR2 SCR1-2 mutant-EBV gp350 ELISA). Settings: mutant MBP-CR2 SCR1-2.
Format: binding
Set-up: DNA corresponding to residues 1-470 of EBV gp350/220; E. coli biotin carboxyl carrier protein (BCCP) fragment, residues 70-156; hexa-histidine (C); made in house; host or cells: human embryonic kidney 293f freestyle cells (pSecTag2/Hygro B)
Method: See Martin et al. (1991) J Exp Med 174:1299-311; Young et al. (2007) J Biol Chem 282:36614-36625; Guthridge et al. (2001) Biochemistry 40:5931-41; and Sarrias et al. (2001) J Immunol 167:1490-9. […] Young et al. (2007) J Biol Chem 282:36614-36625.
as §1

Sequence of EBV gp350 (P03200 1-470): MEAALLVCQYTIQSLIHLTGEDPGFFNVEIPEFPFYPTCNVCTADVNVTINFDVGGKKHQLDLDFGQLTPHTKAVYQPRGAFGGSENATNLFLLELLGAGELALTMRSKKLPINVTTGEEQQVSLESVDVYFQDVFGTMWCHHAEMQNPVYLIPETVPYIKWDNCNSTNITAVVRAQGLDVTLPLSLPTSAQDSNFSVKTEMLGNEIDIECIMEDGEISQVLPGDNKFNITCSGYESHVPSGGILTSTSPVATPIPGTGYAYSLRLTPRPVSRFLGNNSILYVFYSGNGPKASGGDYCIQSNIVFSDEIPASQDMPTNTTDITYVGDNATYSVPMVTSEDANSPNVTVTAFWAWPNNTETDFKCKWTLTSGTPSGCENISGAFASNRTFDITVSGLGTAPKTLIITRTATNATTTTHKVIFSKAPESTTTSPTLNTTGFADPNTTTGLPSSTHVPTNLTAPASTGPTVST

| Molecule | EBV gp350 binding relative to wild-type CR2 |
| --- | --- |
| B1 | significantly decreased capacity |
| B2 | failed to inhibit EBV gp350 binding |
| B6 | major reduction in EBV gp350 binding |
| B9 | significantly decreased capacity |
| B10 | significantly decreased capacity |

What follows are molecules tested on anti-CR2 SCR1-2 mAb 629 (assay: MBP-CR2 SCR1-2-629 mAb ELISA). Settings: mutant MBP-CR2 SCR1-2 relative to wild-type.
Format: binding
Source text: The excellent correlation observed between our cell-binding studies and the ELISA analyses provides proof-of-principle that the MBP-CR2 SCR1-2 ELISA is an effective means of characterizing CR2-ligand interactions. […] See Asokan et al. (2006) J Immunol 177:383-94; Guthridge et al. (2001) J Immunol 167:5758-66; Young et al. (2007) J Biol Chem 282:36614-36625. […] This epitope overlaps extensively with the binding surface on CR2 described above for EBV gp350, and also with the previously described binding sites for C3dg and C3d. Hannan et al. (2005) J Mol Biol 346:845-58; and Young et al. (2007) J Biol Chem 282:36614-36625.
as §1

| Molecule | Weighting (629 mAb) |
| --- | --- |
| B1 | ++++ (++++>90%) |
| B2 | ++++ (++++>90%) |
| B3 | +++ (+++89.9-70%) |
| B4 | +++ (+++89.9-70%) |
| B5 | ++++ (++++>90%) |
| B6 | ++++ (++++>90%) |
| B7 | +++ (+++89.9-70%) |
| B8 | ++++ (++++>90%) |
| B9 | ++++ (++++>90%) |
| B10 | +++ (+++89.9-70%) |
| B11 | ++++ (++++>90%) |
| B12 | +++ (+++89.9-70%) |
| B13 | ++++ (++++>90%) |
| B14 | ++++ (++++>90%) |
| B15 | +++ (+++89.9-70%) |

Same assay, conditions: mutant MBP-CR2 SCR1-2 relative to wild-type; plate-bound 629 mAb

| Molecule | % 629 mAb Bindng [%] |
| --- | --- |
| B1 | 103.1 |
| B2 | 113.2 |
| B3 | 82.0 |
| B4 | 87.5 |
| B5 | 108.1 |
| B6 | 91.7 |
| B7 | 85.6 |
| B8 | 113.8 |
| B9 | 97.5 |
| B10 | 85.5 |
| B11 | 113.9 |
| B12 | 87.5 |
| B13 | 117.8 |
| B14 | 102.3 |
| B15 | 84.9 |
